The chains are these.
B1: Lmod2[451–492] (peptide)
peptide: PLPEKKLITRNIAEVIKQQESAQRALQNGQRKKKGKKVKKQP
notes: also called C-terminal Lmod2 fragment after the polyP region; source: synthetic peptide (Tufts University Core Facility)
B2: Lmod2[518–543] (peptide)
peptide: STPQRSVHENLMEAIRGSSIRQLRRV
notes: also called Lmod2 fragment containing the WH2 domain; source: synthetic peptide (Tufts University Core Facility)
B3: Lmod2[387–426] (peptide)
peptide: WQRGTPGSSPYASPRQSPWSSPKVSKKVHTGRSRPPSPVA
notes: also called C-terminal Lmod2 fragment between the LRR domain and the polyP region; source: synthetic peptide (Tufts University Core Facility)

The assay has as its target G-actin (UniProt P68135 1-377). The experiment in a line: native gel or EMSA; 9% polyacrylamide, 10% glycerol, no SDS; fragments mixed with 5 μM G-actin at 1:2, 1:1, 1.5:1 and 2:1 molar ratios (Lmod2[518–543] at 2:1 only); densitometry of the actin band. To be noted: both partners purified.
Regarding B1, the “percent of the actin in complex at a 2:1 fragment to actin molar ratio” value is ~60%.
As for B2, the “percent of the actin in complex at a 2:1 fragment to actin molar ratio” value was ~90%.
The figure for B3 is ~70%.

The record behind these values is PMC11813103, “Interaction of cardiac leiomodin with the native cardiac thin filament” (PLOS Biology, 2025).
